Measured values taken from patent US20220332804A1 (CSL INNOVATION, published 2022).
Numbering of substitutions follows the chain as printed.

Tests used:
Assay in all cases: SPR, KD relative to WT C2;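 further: biacore SPR at 37 °C, anti-C2 mAbs captured on anti-human IgG chips with alanine or serine point mutants of C2 as analyte, KD from 1:1 fit compared with wild-type C2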
human C2 F689A = target: T1, human C2 F689A (human, UniProt P06681 21-752)
T1 sequence: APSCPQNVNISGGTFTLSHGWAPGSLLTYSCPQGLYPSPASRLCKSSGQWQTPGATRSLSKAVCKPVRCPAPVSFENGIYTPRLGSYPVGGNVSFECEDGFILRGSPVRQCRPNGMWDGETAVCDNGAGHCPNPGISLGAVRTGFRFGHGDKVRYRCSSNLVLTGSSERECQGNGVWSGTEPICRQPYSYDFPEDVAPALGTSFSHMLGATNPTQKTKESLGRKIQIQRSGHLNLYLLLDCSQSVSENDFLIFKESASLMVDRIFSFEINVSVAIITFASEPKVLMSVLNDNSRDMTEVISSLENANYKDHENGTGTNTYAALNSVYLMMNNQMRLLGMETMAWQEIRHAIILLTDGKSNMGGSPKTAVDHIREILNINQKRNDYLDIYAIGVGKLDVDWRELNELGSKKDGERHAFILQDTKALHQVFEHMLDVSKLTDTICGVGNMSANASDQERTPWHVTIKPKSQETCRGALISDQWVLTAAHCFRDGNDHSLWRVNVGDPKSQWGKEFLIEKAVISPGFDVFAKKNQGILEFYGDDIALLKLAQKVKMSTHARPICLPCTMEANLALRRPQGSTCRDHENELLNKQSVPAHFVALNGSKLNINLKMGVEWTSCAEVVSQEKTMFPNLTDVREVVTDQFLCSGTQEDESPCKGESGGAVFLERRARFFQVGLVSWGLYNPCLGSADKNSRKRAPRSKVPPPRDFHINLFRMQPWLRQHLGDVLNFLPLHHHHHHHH

human C2 A470S = target: T2, human C2 A470S (human, UniProt P06681 21-752)
T2 sequence: T1 sequence with A450S, A669F

human C2 N471A = target: T3, human C2 N471A (human, UniProt P06681 21-752)
T3 sequence: T1 sequence with N451A, A669F

human C2 R493A = target: T4, human C2 R493A (human, UniProt P06681 21-752)
T4 sequence: T1 sequence with R473A, A669F

Measured: Fold diff

B1: RF16-242 (antibody, human IgG4 S228P, lambda, V domains shown)
VH: EVQLLQSGAEVKKPGESLKISCKGSGYSFTSYWIGWVRQMPGKGLEWMGIIYPGDSDTRYSPSFQGQVTISADKSISTAYLQWSSLKASDTAMYYCARRGHYGDYFDYWGQGTLVTVSS
VL: SYELTQPPSVSVSPGQTARITCSGDALPKKYAYWYHQKSGQAPVLVIYEDRRRPSEIPERFSGSSSGTMATLTITGAQVEDEGVYFCYSRDRAGNQRVFGGGTQLTVLG
notes: pH-dependent anti-C2 antibody from a phage display library
1 fold: all assays above
